Data: patent US20170304384A1 (AFFIRIS, published 2017)
Ends that are not written are not given here.

T1: peptide p6773 (human, not fully specified (residue 18))
T1 peptide: LPQPPPQAQPLLPQPQPC

T2: peptide p7605 (human, not fully specified (residue 1))
T2 peptide: CSEIVL

T3: peptide p7564 (human, not fully specified (residue 1))
T3 construct: also called cleaved peptide
T3 peptide: CPSDSSEIVLD

T4: peptide p7552 (human, not fully specified (residue 1))
T4 peptide: CSSEIVLD

T5: peptide p7562 (human, not fully specified (residue 1))
T5 peptide: CDSSEIVLD


Key:
[1] = target: T1, peptide p6773; assay: peptide ELISA / peptide microarray
[2] = target: T6, recombinant N-terminal 610 amino acids Huntingtin fragment recHTT610 (human, UniProt P42858 1-610); assay: recHTT610 capture ELISA
T6 construct: range 1-610; Expressed in HEK293 freestyle cells and captured from cell extract by anti-V5 antibody; also called recombinant Huntingtin; reHTT610; not shown: two C-terminal V5 tags
T6 sequence (P42858 1-610): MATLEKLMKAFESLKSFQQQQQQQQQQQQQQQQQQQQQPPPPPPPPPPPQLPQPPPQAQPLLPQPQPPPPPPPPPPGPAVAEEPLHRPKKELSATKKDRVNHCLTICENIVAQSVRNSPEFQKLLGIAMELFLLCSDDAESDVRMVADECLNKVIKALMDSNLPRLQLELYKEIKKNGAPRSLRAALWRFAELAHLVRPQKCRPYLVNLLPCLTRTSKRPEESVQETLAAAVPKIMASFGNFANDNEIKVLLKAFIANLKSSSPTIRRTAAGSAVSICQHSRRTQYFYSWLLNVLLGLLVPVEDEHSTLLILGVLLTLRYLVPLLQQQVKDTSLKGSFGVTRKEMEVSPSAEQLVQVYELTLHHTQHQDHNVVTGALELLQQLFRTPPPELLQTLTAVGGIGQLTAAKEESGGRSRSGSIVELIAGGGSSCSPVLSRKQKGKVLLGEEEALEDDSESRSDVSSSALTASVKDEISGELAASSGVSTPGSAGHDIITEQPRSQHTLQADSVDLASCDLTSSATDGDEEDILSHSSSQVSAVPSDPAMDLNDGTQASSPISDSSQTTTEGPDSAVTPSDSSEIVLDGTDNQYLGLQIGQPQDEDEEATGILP
Procedure: Binding of antibodies to N-terminal fragment HTT610 was determined by a standard protein capture ELISA procedure using Maxisorb™ ELISA plates (Thermo; CatNr. 439454), coated with 50 μl of a 1:5000 rabbit anti V5 mAB (Sigma, CatNr. V8137), blocking with blocking buffer (PBS, 1% BSA, 0.1% Tween 20), capturing of recombinant Huntingtin from HEK cell extracts (100 ng/μl total protein) followed by incubation with several dilutions of mouse anti HTT sera (1:100; 1:300 and 1:900) or with mAB2166 as reference (diluted 1:2000; Millipore, Cat Nr. MAB2166) for 1 hour at RT. ELISA incubations, washing and detection procedures were performed according to standard procedures.
In contrast to specific anti peptide signals (FIG. 11), only 2 out of 9 mAB candidates, namely PRR13 and PRR18, specifically recognize recombinant Huntingtin when tested by recHTT610 capture ELISA (as explained in Example 1). These two candidates provided an outstanding signal to noise ratio (i.e. >=4; calculated reHTT610-specific signal: HEK ctrl extracts), and PRR13 was selected for epitope characterization (see Example 4) and variable chain sequencing (see below). PRR13 was determined as IgG subtype mouse IgG2a.

[3] = target: T2, peptide p7605; assay: peptide ELISA
[4] = target: T3, peptide p7564; assay: peptide ELISA
[5] = target: T4, peptide p7552; assay: peptide ELISA at a mAB concentration of 1 ng/µl
[6] = target: T5, peptide p7562; assay: peptide ELISA at a mAB concentration of 1 ng/µl

binding result [1]	signal to noise ratio (reHTT610-specific signal : HEK ctrl extracts) [2]	binding result [4]	binding result [5]	binding result [6]	Binder	binding result [3]
binds	≥ 4 ratio				monoclonal antibody PRR13 (antibody, mouse IgG2a, V domains shown, Mouse hybridoma mAb raised with p6773, typed mouse IgG2a; The consensus entries come from cDNA and appear to include the leader and the start of the constant region; also called mAB PRR13) VH: EVQLQQSAPELVKPGASVKMSCKASGYSFTDFYMKWVKQSHGKGLEWIGDIDPKNGDTFYNQKFKGRATLTVDKSSSTAYMQLNSLTTEDSAVYYCATYYGYTMDYWGQGTSVTVSS VL: QIVLTQSPAIMSASLGERVTMTCTASSSVTSSYLHWYQQKPGSSPKLWIYSTSNLASGVPARFSGSGSGTSYSLTISSMEAEDAATYYCHQYRRPPRTFGGGTKLEIKR	
		binds	binds	binds	monoclonal antibody M1D1 (antibody, mouse IgM, V domains shown, Mouse hybridoma mAb raised with p7564, typed mouse IgM; The consensus entries appear to include the leader and the start of the constant region; also called mAB M1D1) VH: EVQLVESGGGLVQPKGSLKLSCAASGFTFNTYAMNWVRQAPGKGLEWVARIRSKSNNYATYYADSVKDRFTISRDDSQSMLYLQMNNLKTEDTAMYYCVRHGEYGNPWFAYWGQGTLVTVSA VL: not shown	no binding (tested: mAB concentration of 1 ng/µl)
